According to patent publication US6846803B1, “Antagonists specific for the corticotropin-releasing factor receptor type 2 (CRFR2)” (priority 1998, dated 2005):
Read-outs that look alike come from different tables or passages of the source. Non-standard residues stand in square brackets, D forms with d. No end group written: not given here.

T1: rat CRF receptor, type 1 (rCRFR1) (rat, UniProt P35353 24-415)
T1 sequence (looked up): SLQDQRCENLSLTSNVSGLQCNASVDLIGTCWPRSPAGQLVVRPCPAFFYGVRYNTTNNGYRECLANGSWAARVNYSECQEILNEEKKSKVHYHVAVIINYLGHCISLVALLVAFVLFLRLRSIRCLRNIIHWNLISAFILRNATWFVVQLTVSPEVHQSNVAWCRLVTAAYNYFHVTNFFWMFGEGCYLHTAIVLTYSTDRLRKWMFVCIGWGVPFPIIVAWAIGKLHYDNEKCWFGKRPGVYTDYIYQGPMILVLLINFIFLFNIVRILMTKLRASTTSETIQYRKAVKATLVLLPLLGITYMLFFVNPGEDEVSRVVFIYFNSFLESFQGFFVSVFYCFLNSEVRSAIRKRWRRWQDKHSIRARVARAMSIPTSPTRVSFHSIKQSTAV


Legend:
[1] = target: mouse CRF receptor, type 2β (mCRFR2β) (mouse) (UniProt Q60748); test: Kd(rCRFR1)/Kd(mCRFR2β) of the peptide normalised to that of astressin; radioligand displacement
[2] = target: T1, rat CRF receptor, type 1 (rCRFR1); test: cell-based or functional assay
[3] = target: T1, rat CRF receptor, type 1 (rCRFR1); test: cell-based or functional assay; remark: listed apart in the source
[4] = target: T1, rat CRF receptor, type 1 (rCRFR1); test: cell-based or functional assay; remark: listed apart in the source
[5] = target: T1, rat CRF receptor, type 1 (rCRFR1); test: displacement of [125I-Tyr0]oCRF from HEK-rCRFR1 membranes
Protocol: (§1) Binding assays were performed in 96-well MultiScreen plates (Millipore, Eschborn, Germany) with GF/B filters (pore size 1.0 μm). […] After incubation (60 min, 23° C.), membrane suspension was aspirated through the plate, followed by two washes with assay buffer (0.2 ml, 23°). Radioactivity of the punched filters was measured with a 1470 WIZARD automatic gamma counter (Berthold, Hannover). […] Statistical analysis was performed with ANOVA, and significant differences between groups were determined by post hoc comparison using the Dunn test.

[6] = target: mouse CRF receptor, type 2β (mCRFR2β) (mouse) (UniProt Q60748); test: displacement of [125I-Tyr0]Svg from HEK-mCRFR2β membranes
[7] = target: T1, rat CRF receptor, type 1 (rCRFR1); test: displacement of [125I-Tyr0]oCRF from HEK-rCRFR1 membranes; remark: listed apart in the source
Protocol: as §1

[8] = target: mouse CRF receptor, type 2β (mCRFR2β) (mouse) (UniProt Q60748); test: radioligand displacement; this end of the range tied by the Kd ratio of Table 3 (20.8/3.5)

Row | Binder | Selectivity [1] | EC50, cAMP accumulation in HEK-rCRFR1 cells [2] [nM] | % IA (intrinsic activity), cAMP production, HEK-rCRFR1 cells [3] | rel. IA (relative intrinsic activity), cAMP production, HEK-rCRFR1 cells [4] | Kd [5] [nM] | Kd [6] [nM] | relative in vitro potency, inhibition of oCRF-stimulated cAMP production, HEK-rCRFR1 cells [3] | rel. pot. (relative potency), inhibition of oCRF-stimulated cAMP production, HEK-rCRFR1 cells [4] | Kd [7] [nM] | fold decrease of binding affinity against [DPhe^11]Svg(11-40) (compound 12) [8] [fold]
1 | SQEPPISLDLTFHLLREVLEMTKADQLAQQAHSNRKLLDIA (ends and bridges not checked, Synthetic peptide (Fmoc chemistry on TentaGel S RAM resin); also called compound 1) [ovine corticotropin-releasing factor (oCRF)] | 0.002 | 0.41 | 1 relative, oCRF = 1.00 | 1 relative, oCRF = 1.00 | – | – | – | – | – | –
2 | [dF]ELLRKMIEIEKQEKEKQQAANNRLLLDTI (not fully specified (C-terminus), also called compound 12) [[DPhe^11]Svg(11-40)] | 47.6 | – | 0.07 relative, oCRF = 1.00 | 0.07 relative, oCRF = 1.00 | 237 | 3.5 | 0.75 relative, oCRF = 1.00 | 0.75 relative, oCRF = 1.00 | 237 | –
3 | YELLRKMIEIEKQEKEKQQAANNRLLLDTI (ends and bridges not checked, also called compound 19) [[Tyr^11]Svg(11-40)] | 33 | – | – | 0.09 relative, oCRF = 1.00 | 977 | – | – | 0.82 relative, oCRF = 1.00 | – | 1.4 to 5.9
4 | [dL]ELLRKMIEIEKQEKEKQQAANNRLLLDTI (not fully specified (C-terminus), also called compound 13) [[DLeu^11]Svg(11-40)] | 56.1 | – | 0.22 relative, oCRF = 1.00 | 0.22 relative, oCRF = 1.00 | 1670 | 20.9 | 0.92 relative, oCRF = 1.00 | 0.92 relative, oCRF = 1.00 | 1670 | –
5 | LELLRKMIEIEKQEKEKQQAANNRLLLDTI (not fully specified (C-terminus), also called compound 14) [Svg(11-40)] | 37.9 | – | 0.14 relative, oCRF = 1.00 | 0.14 relative, oCRF = 1.00 | 831 | 15.4 | 0.76 relative, oCRF = 1.00 | 0.76 relative, oCRF = 1.00 | 831 | –
